Experimental data published in patent US12098378B2, “Anti-fungal polypeptides” (priority 2020, dated 2024).

Experiments:
[1] = test system: Botrytis cinerea; assay: Control of Botrytis cinerea on strawberry, at harvest and postharvest; assay type: in vivo
Experimental: (§1) Four replicates of 20 strawberry plants ([…] per plot) were treated with 0.576 or 0.72 l of spray solution, corresponding with a spray volume of […], according to local practice. The spray mix contained a concentration of active ingredient as described in Table 7. Six applications were performed spaced 7 days apart. No artificial infection was performed and first spray was placed at the onset of flowering. The efficacy of 10G11 was compared to that of a non-treated control and the chemical reference Teldor (Fenhexamid). In addition, a chemical rotation of Switch (Cyprodinil+Fludioxonil), Teldor (Fenhexamid) and Scala (Pyrimethanil) was evaluated. A seventh treatment replaced part of the chemicals in this chemical rotation by 10G11 as described in Table 7.
Efficacy assessments were performed on fruits at harvest and the number and weight of healthy and diseased fruits was evaluated. Per plot, 50 healthy fruits were then placed into cold storage (2° C.) for two days, after which the postharvest assessment continued for 5 more days at ambient temperature ([…]). Botrytis incidence and severity on stored fruits was assessed at 0, 2 and 5 days at ambient storage.

[2] = test system: Botrytis cinerea spores; assay: Microscopic time-lapse imaging of spores (mode of action); assay type: cell-based; details: IncuCyte time-lapse imaging (FIG. 14)
Description: The action of 10G11 disrupting liposomes (Example 12), further underscores lysing of spores can be attributed to the action of 10G11.

[3] = test system: Fraction 3; assay: ELISA with biotinylated liposomes on streptavidin-coated plates; assay type: binding, Botrytis cinerea
Description: Dissociation constants (Kd) can be estimated based on the results of an ELISA. In equilibrium analysis as in ELISA, the Kd can be calculated from the equilibrium binding response. Where the ELISA plate wells are coated with a target antigen, and where the target antigen may be a lipid-containing fraction of the membrane of Botrytis cinerea, such a method may further use a range of concentrations of a polypeptide binding the target antigen. Where the ELISA generally provides a quantitative adsorption measure for each polypeptide concentration representing binding of the polypeptide to the target antigen, the range of concentration of a polypeptide may for example be 0.5, 1, 2.5, 5, and 10 μM. The most suitable range of concentrations used can vary depending on the affinity of the polypeptide to the target antigen. The corresponding absorption values as determined by ELISA may result in a sigmoid curve when absorption values are plotted against the logarithmic conversion of the polypeptide concentrations. This sigmoid curve may serve to define an IC50 value. Where this IC50 is the concentration of polypeptide where the corresponding absorption value is 50% of the saturated value as estimated by the maximum of the sigmoidal function, the Kd can be estimated by 1/Ka were the association constant (Ka) can be estimated as 1/IC50. Thus Kd corresponds to the analyte concentration that reaches equilibrium at 50% binding saturation. Commonly computation methods can be used for these calculations. For example, this can be done using GraphPad. In some embodiments, the Kd may be determined by surface plasmon resonance (SPR).
The above-mentioned method for the formation of liposomes (Example 12) was modified with the addition of a biotinylated lipid (12:0 Biotinyl M G (1-(12-N-biotin)aminododecanoyl-rac-glycerol), Sigma Aldrich), to allow for use of these liposomes for ELISA using streptavidin-coated plates (Pierce™ Streptavidin Coated High Capacity Plates, Clear, 96-Well, blocked with SuperBlock™ Buffer, Thermo Fisher Scientific).
To estimate the dissociation constant Kd value of 10G11 binding to Fraction 3, the ELISA set-up with biotinylated liposomes from Fraction 3 as described in Example 13 was used. 10G11 polypeptide was added in the following concentrations: 0.5, 1, 2.5, 5, and 10 μM, prepared by a serial dilution in phosphate buffer. […] This plot was used to estimate the Kd dissociation constant using GraphPad. Where non-linear regression fitting was used.

[4] = test system: Podosphaera aphanis; assay: Control of powdery mildew on strawberry in greenhouse; assay type: in vivo; details: 250, 500, 750 g ai/ha, 6 applications
Experimental: as §1, with “6.” for “7.”, “before first symptoms appeared.” for “at the onset of flowering.”, “Topas 2.5 WG (Penconazole).” for “Teldor (Fenhexamid).”, “Ganzo (Myclobutanil), Topas 2.5 WG (Penconazole)” for “Switch (Cyprodinil+Fludioxonil), Teldor (Fenhexamid)”, “Signum (Boscalid+Pyraclostrobin)” for “Scala (Pyrimethanil)”
Efficacy assessments were performed on 20 leaves per plot, assessing the percentage of leaf area affected (PESSEV) and the percentage of leaves affected (PESINC) on the whole plot. Assessments were performed on a weekly basis and continued until 2 weeks after the last application.

[5] = test system: Uncinula necator; assay: Control of powdery mildew on grapevine in field; assay type: in vivo; details: 250, 500, 750 g ai/ha, 8 applications, until four weeks after application
Experimental: Four replicates of 10 vines (25 m^2 per plot) were treated with 8 or 10 l of spray solution, corresponding with a spray volume of […], according to local practice and growth stage of the vines. The spray mix contained a concentration of active ingredient as described in Table 4. Eight applications were performed, spaced on average 10 days apart. No artificial infection was performed and first spray was at pre-bloom stage, before first powdery mildew symptoms. The efficacy 10G11 was compared to that of a non-treated control and the chemical reference Topas 10 EC (Penconazole). In addition, a chemical rotation of Tiovit Jet (sulphur), Vivando (Metrafenon), Sercadis (Fluxapyroxad), Prosper 500 EC (Spiroxamine) and Karathane Star (Meptyldinocap) was evaluated. A seventh treatment replaced part of the chemicals in this chemical rotation by 10G11 as described in Table 4.
Efficacy assessments were performed on leaves by evaluating the percentage of leaf area affected on 100 leaves randomly selected from the same position on the shoot. In addition, powdery mildew infection on fruits was assessed as the percentage of infected area of 50 randomly selected bunches per plot. Assessments continued until 4 weeks after the last application.

B1: 10G11: VHH polypeptide, SEQ ID NO: 2, begins with a D residue (protein)
VHH: DVQLVESGGGLVQAGGSLRLSCAASRSIFSINAMDWYRQAPGKQREWVAGITRGGTTKYADSVKGRFTISRDNAKKKVYLQMNSLKPEDTAVYYCNVLRGEQPWTRDYWGQGTQVTVSS
[1]; 250, 500, 750 g ai/ha, 6 applications in the field during flowering (FIG. 26)
  Botrytis infected strawberry fruits at harvest: reduced incidence of Botrytis at harvest
[1]; stored fruits, 2 days at 2° C. then 0, 2 and 5 days at ambient storage (FIG. 27)
  Botrytis severity on strawberry fruits in postharvest: dose-related reduction of Botrytis severity on stored fruits
[2]
  spore lysis (loss of structural integrity): substantial portion of spores are also lysed
  spore outgrowth: inhibited in commencing spore outgrowth
[3]; 0.5, 1, 2.5, 5 and 10 μM polypeptide, non-linear regression fitting in GraphPad (FIG. 29), read-out: IC50 of ELISA absorption plot
  IC50: 0.76 to 1.55 µM
[3]; converted from the ELISA IC50 range (FIG. 29), read-out: dissociation constant Kd, estimate
  Kd: 0.76 to 1.55 µM
[4]; until two weeks after the last application (FIG. 24)
  severity (PESSEV) of powdery mildew on strawberry: clear and dose-related performance
[4]; until two weeks after the last application (FIG. 25)
  incidence (PESINC) of powdery mildew on strawberry: clear and dose-related performance
[5]; very high disease pressure (FIG. 20)
  severity of powdery mildew on grape leaves (percentage of leaf area affected): clear and dose-related performance
[5]; very high disease pressure (FIG. 21)
  severity of powdery mildew on grape bunches (percentage of infected area): clear and dose-related performance
